Experimental data taken from US20250011397A1 (HOSPITAL FOR SICK CHILDREN, published 2025).
Where “and” joins values, the source holds several entries; their conditions need not be identical. Identical values can stand only once.

What was measured:
[1] = target: T1, SARS-CoV-2 Spike on HIV-based pseudotyped virus (Spike plasmid BEI NR52310) (SARS-CoV-2, UniProt P0DTC2 14-1273); test: cell-based or functional assay
[2] = target: T1, SARS-CoV-2 Spike on HIV-based …; test: cell-based or functional assay; remark: listed apart in the source

B1: MB 192 (other)
heavy: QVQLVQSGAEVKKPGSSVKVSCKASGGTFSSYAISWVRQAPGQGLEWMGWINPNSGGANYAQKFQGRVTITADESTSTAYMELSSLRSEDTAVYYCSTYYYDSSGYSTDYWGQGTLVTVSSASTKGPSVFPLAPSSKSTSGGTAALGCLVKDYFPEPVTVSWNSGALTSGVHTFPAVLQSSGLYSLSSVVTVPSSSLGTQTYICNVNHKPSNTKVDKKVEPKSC
light: DIVMTQSPLSLPVTPGEPASISCRSSQSLLHSNGYNYLDWYLQKPGQSPQLLIYAASSLQSGVPDRFSGSGSGTDFTLKISRVEAEDVGVYYCMQALQTPYTFGQGTKLEIKRTVAAPSVFIFPPSDEQLKSGTASVVCLLNNFYPREAKVQWKVDNALQSGNSQESVTEQDSKDSTYSLSSTLTLSKADYEKHKVYACEVTHQGLSSPVTKSFNRGEC
IC50 SARS-CoV2 PsV (µg/mL), MB [1]: 0.79 µg/mL
Median IC50 (PsV neutralization) [2]: 0.79 µg/mL and 343 pM

B2: MB 180 (other)
heavy: QVQLVQSGAEVKKPGSSVKVSCKASGYTFTSYAMHWVRQAPGQGLEWMGRISPRSGGTKYAQRFQGRVTITADESTSTAYMELSSLRSEDTAVYYCAREAVAGTHPQAGDFDLWGRGTLVTVSSASTKGPSVFPLAPSSKSTSGGTAALGCLVKDYFPEPVTVSWNSGALTSGVHTFPAVLQSSGLYSLSSVVTVPSSSLGTQTYICNVNHKPSNTKVDKKVEPKSC
light: DIVMTQSPLSLPVTPGEPASISCRSSQSLLHSNGYNYLDWYLQKPGQSPQLLIYAASSLQSGVPDRFSGSGSGTDFTLKISRVEAEDVGVYYCQQYYSSPYTFGQGTKLEIKRTVAAPSVFIFPPSDEQLKSGTASVVCLLNNFYPREAKVQWKVDNALQSGNSQESVTEQDSKDSTYSLSSTLTLSKADYEKHKVYACEVTHQGLSSPVTKSFNRGEC
IC50 SARS-CoV2 PsV (µg/mL), MB [1]: 0.89 µg/mL
Median IC50 (PsV neutralization) [2]: 0.89 µg/mL and 387 pM

B3: MB 108 (other)
heavy: QVQLVQSGAEVKKPGASVKVSCKASGYIFSRYAIHWVRQAPGQGLEWMGWMNPISGNTDYAPNFQGRVTMTRDTSTSTVYMELSSLRSEDTAVYYCAKDGSQLAYLVEYFQHWGQGTLVTVSSASTKGPSVFPLAPSSKSTSGGTAALGCLVKDYFPEPVTVSWNSGALTSGVHTFPAVLQSSGLYSLSSVVTVPSSSLGTQTYICNVNHKPSNTKVDKKVEPKSC
light: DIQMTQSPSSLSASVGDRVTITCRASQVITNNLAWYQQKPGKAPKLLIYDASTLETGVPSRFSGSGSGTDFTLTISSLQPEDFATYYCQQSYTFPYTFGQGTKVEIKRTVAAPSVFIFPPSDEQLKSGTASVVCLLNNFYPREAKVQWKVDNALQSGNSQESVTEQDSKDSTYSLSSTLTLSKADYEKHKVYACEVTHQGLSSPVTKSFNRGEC
IC50 SARS-CoV2 PsV (µg/mL), MB [1]: 0.37 µg/mL
Median IC50 (PsV neutralization) [2]: 0.37 µg/mL and 161 pM

B4: MB 178 (other)
heavy: QVQLVQSGAEVKKPGASVKVSCKASGYTFTDYHMHWVRQAPGQGLEWMGWINPNSGGTNYAQKFQGRVTMTRDTSTSTVYMELSSLRSEDTAVYYCARDISSWYEITKFDPWGQGTLVTVSSASTKGPSVFPLAPSSKSTSGGTAALGCLVKDYFPEPVTVSWNSGALTSGVHTFPAVLQSSGLYSLSSVVTVPSSSLGTQTYICNVNHKPSNTKVDKKVEPKSC
light: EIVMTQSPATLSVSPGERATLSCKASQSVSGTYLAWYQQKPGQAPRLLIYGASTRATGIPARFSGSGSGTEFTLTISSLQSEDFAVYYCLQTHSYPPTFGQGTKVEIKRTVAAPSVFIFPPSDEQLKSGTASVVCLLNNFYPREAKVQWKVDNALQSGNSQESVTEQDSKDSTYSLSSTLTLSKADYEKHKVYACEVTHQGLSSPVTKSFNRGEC
IC50 SARS-CoV2 PsV (µg/mL), MB [1]: 1.7 µg/mL
Median IC50 (PsV neutralization) [2]: 1.7 µg/mL and 0.74 nM

B5: mAb 349 (antibody, V domains shown)
VH: EVQLLESGGGLVQPGGSLRLSCAASGFTFSNYGMHWVRQAPGKGLEWVSGISSAGSITNYADSVKGRFTISRDNSKNTLYLQMNSLRAEDTAVYYCAGNHAGTTVTSEYFQHWGQGTLVTVSS
VL: DIQMTQSPSSLSASVGDRVTITCRASQSISSWLAWYQQKPGKAPKLLIYDTSNLETGVPSRFSGSGSGTDFTLTISSLQPEDFATYYCQQSYTTPWTFGQGTRLEIKR
notes: also called IgG 349
IC50 SARS-CoV2 PsV (µg/mL), IgG [1]: > 50 µg/mL
Median IC50 (PsV neutralization) [2]: > 50 µg/mL and > 333 nM

B6: mAb 160 (antibody, V domains shown)
VH: QVQLVQSGAEVKKPGASVKVSCKASGYTFTGHDMHWVRQAPGQGLEWMGIINPSGGSTSYAQKFQGRVTMTRDTSTSTVYMELSSLRSEDTAVYYCARANSLRYYYGMDVWGQGTMVTVSS
VL: DIQMTQSPSSLSASVGDRVTITCRASQSVSSWLAWYQQKPGKAPKLLIYAASSLQSGVPSRFSGSGSGTDFTLTISSLQPEDFATYYCQQGYTTPYTFGQGTKLEIKR
notes: also called IgG 160
IC50 SARS-CoV2 PsV (µg/mL), IgG [1]: > 50 µg/mL
Median IC50 (PsV neutralization) [2]: > 50 µg/mL and > 333 nM

B7: mAb 108 (antibody, V domains shown)
VH: QVQLVQSGAEVKKPGASVKVSCKASGYIFSRYAIHWVRQAPGQGLEWMGWMNPISGNTDYAPNFQGRVTMTRDTSTSTVYMELSSLRSEDTAVYYCAKDGSQLAYLVEYFQHWGQGTLVTVSS
VL: DIQMTQSPSSLSASVGDRVTITCRASQVITNNLAWYQQKPGKAPKLLIYDASTLETGVPSRFSGSGSGTDFTLTISSLQPEDFATYYCQQSYTFPYTFGQGTKVEIKR
IC50 SARS-CoV2 PsV (µg/mL), IgG [1]: > 50 µg/mL
Median IC50 (PsV neutralization) [2]: > 50 µg/mL and > 333 nM

B8: mAb 178 (antibody, V domains shown)
VH: QVQLVQSGAEVKKPGASVKVSCKASGYTFTDYHMHWVRQAPGQGLEWMGWINPNSGGTNYAQKFQGRVTMTRDTSTSTVYMELSSLRSEDTAVYYCARDISSWYEITKFDPWGQGTLVTVSS
VL: EIVMTQSPATLSVSPGERATLSCKASQSVSGTYLAWYQQKPGQAPRLLIYGASTRATGIPARFSGSGSGTEFTLTISSLQSEDFAVYYCLQTHSYPPTFGQGTKVEIKR
notes: also called IgG 178
IC50 SARS-CoV2 PsV (µg/mL), IgG [1]: > 50 µg/mL
Median IC50 (PsV neutralization) [2]: > 50 µg/mL and > 333 nM

B9: MB 158 (other)
heavy: QVQLVQSGAEVKKPGASVKVSCKASGYTFTGYYMHWVRQAPGQGLEWMGWINPLNGGTNFAPKFQGRVTMTRDTSTSTVYMELSSLRSEDTAVYYCARDPGGSYSNDAFDIWGQGTLVTVSSASTKGPSVFPLAPSSKSTSGGTAALGCLVKDYFPEPVTVSWNSGALTSGVHTFPAVLQSSGLYSLSSVVTVPSSSLGTQTYICNVNHKPSNTKVDKKVEPKSC
light: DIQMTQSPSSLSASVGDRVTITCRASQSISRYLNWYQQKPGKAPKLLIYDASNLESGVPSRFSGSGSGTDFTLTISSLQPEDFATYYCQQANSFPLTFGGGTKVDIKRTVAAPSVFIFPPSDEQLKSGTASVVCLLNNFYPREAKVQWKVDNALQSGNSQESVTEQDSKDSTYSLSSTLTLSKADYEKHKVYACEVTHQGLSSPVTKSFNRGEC
IC50 SARS-CoV2 PsV (µg/mL), MB [1]: 0.1 µg/mL
Median IC50 (PsV neutralization) [2]: 0.1 µg/mL and 43 pM

B10: MB 56 (other)
heavy: QVQLVQSGAEVKKPGASVKVSCKASGYTFTSYGISWVRQAPGQGLEWMGWISAYNGNTNYAQKLQGRVTMTRDTSTSTVYMELSSLRSEDTAVYYCARDIGPIDYWGQGTLVTVSSASTKGPSVFPLAPSSKSTSGGTAALGCLVKDYFPEPVTVSWNSGALTSGVHTFPAVLQSSGLYSLSSVVTVPSSSLGTQTYICNVNHKPSNTKVDKKVEPKSC
light: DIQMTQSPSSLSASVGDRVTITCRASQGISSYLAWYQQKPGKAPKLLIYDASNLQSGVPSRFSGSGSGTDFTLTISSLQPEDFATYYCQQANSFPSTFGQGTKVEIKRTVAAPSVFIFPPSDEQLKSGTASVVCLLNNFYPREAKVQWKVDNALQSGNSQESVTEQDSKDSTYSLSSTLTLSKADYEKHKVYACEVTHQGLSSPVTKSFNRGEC
IC50 SARS-CoV2 PsV (µg/mL), MB [1]: > 50 µg/mL
Median IC50 (PsV neutralization) [2]: > 50 µg/mL and > 0.33 µM

B11: mAb 128 (antibody, V domains shown)
VH: QVQLVQSGAEVKKPGASVKVSCKASGYTFTHYYMHWVRQAPGQGLEWMGIINPSSSSASYSQKFQGRVTMTRDTSTSTVYMELSSLRSEDTAVYYCARDGRYGSGSYPFDYWGQGTLVTVSS
VL: DIQMTQSPSSLSASVGDRVTITCRASQNISRYLNWYQQKPGKAPKLLIYDASNLETGVPSRFSGSGSGTDFTLTISSLQPEDFATYYCQQANGFPPTFGQGTKLEIKR
IC50 SARS-CoV2 PsV (µg/mL), IgG [1]: > 50 µg/mL
Median IC50 (PsV neutralization) [2]: > 50 µg/mL and > 333 nM

B12: mAb 56 (antibody, V domains shown)
VH: QVQLVQSGAEVKKPGASVKVSCKASGYTFTSYGISWVRQAPGQGLEWMGWISAYNGNTNYAQKLQGRVTMTRDTSTSTVYMELSSLRSEDTAVYYCARDIGPIDYWGQGTLVTVSS
VL: DIQMTQSPSSLSASVGDRVTITCRASQGISSYLAWYQQKPGKAPKLLIYDASNLQSGVPSRFSGSGSGTDFTLTISSLQPEDFATYYCQQANSFPSTFGQGTKVEIKR
notes: also called IgG 56
IC50 SARS-CoV2 PsV (µg/mL), IgG [1]: > 50 µg/mL
Median IC50 (PsV neutralization) [2]: > 50 µg/mL and > 333 nM

B13: mAb 368 (antibody, V domains shown)
VH: QVQLVQSGAEVKKPGSSVKVSCKASGYTFTSYDINWVRQAPGQGLEWMGAIMPMFGTANYAQKFQGRVTITADESTSTAYMELSSLRSEDTAVYYCARGSSGYYYGWGQGTLVTVSS
VL: not shown
IC50 SARS-CoV2 PsV (µg/mL), IgG [1]: > 50 µg/mL
Median IC50 (PsV neutralization) [2]: > 50 µg/mL and > 333 nM

B14: MB 128 (other)
heavy: QVQLVQSGAEVKKPGASVKVSCKASGYTFTHYYMHWVRQAPGQGLEWMGIINPSSSSASYSQKFQGRVTMTRDTSTSTVYMELSSLRSEDTAVYYCARDGRYGSGSYPFDYWGQGTLVTVSSASTKGPSVFPLAPSSKSTSGGTAALGCLVKDYFPEPVTVSWNSGALTSGVHTFPAVLQSSGLYSLSSVVTVPSSSLGTQTYICNVNHKPSNTKVDKKVEPKSC
light: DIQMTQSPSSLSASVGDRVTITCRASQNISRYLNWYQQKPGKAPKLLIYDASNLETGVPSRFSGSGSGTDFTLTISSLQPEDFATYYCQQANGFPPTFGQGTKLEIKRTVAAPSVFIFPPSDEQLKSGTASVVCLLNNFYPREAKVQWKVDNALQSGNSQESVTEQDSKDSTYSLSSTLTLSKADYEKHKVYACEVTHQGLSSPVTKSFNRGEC
IC50 SARS-CoV2 PsV (µg/mL), MB [1]: 3.5 µg/mL
Median IC50 (PsV neutralization) [2]: 1.5 nM and 3.5 µg/mL

B15: MB 349 (other)
heavy: EVQLLESGGGLVQPGGSLRLSCAASGFTFSNYGMHWVRQAPGKGLEWVSGISSAGSITNYADSVKGRFTISRDNSKNTLYLQMNSLRAEDTAVYYCAGNHAGTTVTSEYFQHWGQGTLVTVSSASTKGPSVFPLAPSSKSTSGGTAALGCLVKDYFPEPVTVSWNSGALTSGVHTFPAVLQSSGLYSLSSVVTVPSSSLGTQTYICNVNHKPSNTKVDKKVEPKSC
light: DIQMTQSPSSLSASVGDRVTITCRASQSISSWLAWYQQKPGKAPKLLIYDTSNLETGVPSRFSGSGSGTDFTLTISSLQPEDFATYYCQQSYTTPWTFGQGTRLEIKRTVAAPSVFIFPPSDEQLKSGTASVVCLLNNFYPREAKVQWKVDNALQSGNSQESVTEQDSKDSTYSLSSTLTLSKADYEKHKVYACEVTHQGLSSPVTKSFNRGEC
IC50 SARS-CoV2 PsV (µg/mL), MB [1]: > 50 µg/mL
Median IC50 (PsV neutralization) [2]: > 50 µg/mL and > 0.33 µM

B16: MB 120 (other)
heavy: QVQLVQSGAEVKKPGASVKVSCKASGYTFTSYDINWVRQAPGQGLEWMGMIDPSGGSTSYAQKFQGRVTMTRDTSTSTVYMELSSLRSEDTAVYYCAKDFGGGTRYDYWYFDLWGRGTLVTVSSASTKGPSVFPLAPSSKSTSGGTAALGCLVKDYFPEPVTVSWNSGALTSGVHTFPAVLQSSGLYSLSSVVTVPSSSLGTQTYICNVNHKPSNTKVDKKVEPKSC
light: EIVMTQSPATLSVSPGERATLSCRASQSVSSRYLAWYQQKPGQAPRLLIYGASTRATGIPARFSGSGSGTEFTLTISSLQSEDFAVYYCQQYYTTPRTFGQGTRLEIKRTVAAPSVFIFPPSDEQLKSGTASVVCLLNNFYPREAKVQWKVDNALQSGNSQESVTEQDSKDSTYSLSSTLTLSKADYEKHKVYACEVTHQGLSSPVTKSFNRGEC
IC50 SARS-CoV2 PsV (µg/mL), MB [1]: 7.2 µg/mL
Median IC50 (PsV neutralization) [2]: 7.2 µg/mL and 3.1 nM

B17: MB 160 (other)
heavy: QVQLVQSGAEVKKPGASVKVSCKASGYTFTGHDMHWVRQAPGQGLEWMGIINPSGGSTSYAQKFQGRVTMTRDTSTSTVYMELSSLRSEDTAVYYCARANSLRYYYGMDVWGQGTMVTVSSASTKGPSVFPLAPSSKSTSGGTAALGCLVKDYFPEPVTVSWNSGALTSGVHTFPAVLQSSGLYSLSSVVTVPSSSLGTQTYICNVNHKPSNTKVDKKVEPKSC
light: DIQMTQSPSSLSASVGDRVTITCRASQSVSSWLAWYQQKPGKAPKLLIYAASSLQSGVPSRFSGSGSGTDFTLTISSLQPEDFATYYCQQGYTTPYTFGQGTKLEIKRTVAAPSVFIFPPSDEQLKSGTASVVCLLNNFYPREAKVQWKVDNALQSGNSQESVTEQDSKDSTYSLSSTLTLSKADYEKHKVYACEVTHQGLSSPVTKSFNRGEC
IC50 SARS-CoV2 PsV (µg/mL), MB [1]: 0.22 µg/mL
Median IC50 (PsV neutralization) [2]: 0.22 µg/mL and 96 pM

B18: MB 254 (other)
heavy: EVQLLESGGGLVQPGGSLRLSCAASGFTFSSSAMHWVRQAPGKGLEWVSAIGTGGDTYYADSVKGRFTISRDNSKNTLYLQMNSLRAEDTAVYYCAREGDGYNFYFDYWGQGTLVTVSSASTKGPSVFPLAPSSKSTSGGTAALGCLVKDYFPEPVTVSWNSGALTSGVHTFPAVLQSSGLYSLSSVVTVPSSSLGTQTYICNVNHKPSNTKVDKKVEPKSC
light: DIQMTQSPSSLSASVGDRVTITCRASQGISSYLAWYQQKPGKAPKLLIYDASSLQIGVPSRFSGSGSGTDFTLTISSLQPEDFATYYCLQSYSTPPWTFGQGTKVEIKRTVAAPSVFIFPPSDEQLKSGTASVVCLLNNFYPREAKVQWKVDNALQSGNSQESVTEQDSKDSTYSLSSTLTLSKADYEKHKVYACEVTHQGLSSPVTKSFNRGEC
IC50 SARS-CoV2 PsV (µg/mL), MB [1]: 9.3 µg/mL
Median IC50 (PsV neutralization) [2]: 9.3 µg/mL and 4 nM
